This note sets out measurements from US20230104540A1 (NEURACLE SCIENCE, published 2023).

The Kd is the constant that tells how readily two partners part at equilibrium.

Assay [1] addresses T1, FAM19A1 protein (ELISA of Example 3) (Homo sapiens (Human), UniProt Q7Z5A9 20-133). Briefly: ELISA, IgG titrated from 0 to 100 nM on FAM19A1 protein (Example 3); Kd row of the table under the graph, R square 0.9106, the concentration axis reads Cons (nM); fitted curve levels off low, at A450 about 0.75. In general terms: An ELISA detects its analyte on a solid surface through an enzyme-linked reagent.

The target in a further assay is T2, CD58-Fc (UniProt P19256 29-215, limits assumed).
T2 construct: Control antigen
T2 sequence (looked up): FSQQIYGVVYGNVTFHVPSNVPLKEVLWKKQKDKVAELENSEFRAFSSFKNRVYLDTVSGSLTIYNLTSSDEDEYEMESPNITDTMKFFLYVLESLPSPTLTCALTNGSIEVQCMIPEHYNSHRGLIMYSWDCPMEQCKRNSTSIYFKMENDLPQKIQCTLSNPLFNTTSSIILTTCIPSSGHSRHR
Put plainly: mono scFv-phage ELISA on coated antigen, single point (Example 2).

The next assay addresses T3, AITR-Fc (UniProt Q9Y5U5 26-161, limits assumed).
T3 construct: also called AIRTR
T3 sequence (looked up): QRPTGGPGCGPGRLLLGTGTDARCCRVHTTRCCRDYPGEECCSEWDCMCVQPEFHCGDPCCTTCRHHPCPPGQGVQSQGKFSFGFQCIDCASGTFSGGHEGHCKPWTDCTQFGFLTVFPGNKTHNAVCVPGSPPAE
Described as above.

Another assay has as its target T4, hRAGE-Fc (human (by the label hRAGE), UniProt Q15109 23-344, limits assumed).
T4 construct: Control antigen
Described as above.

A further assay addresses Fam19A1-M2. Briefly: ELISA on coated FAM19A1 protein (500 ng), one antibody amount, anti-hKappa-HRP (Example 4).
In another assay the target is Fam19A1-M1. The description is as above.
The next assay addresses FAM19A1 mutant M6 (Mus musculus (Mouse), UniProt Q7TPG8 20-133). Put plainly: ELISA on plate-coated mutant, anti-hKappa-HRP detection.
Assay [2] concerns the target T1, FAM19A1 protein (ELISA of Example 3). Briefly: ELISA, IgG titrated from 0 to 100 nM on FAM19A1 protein (Example 3); Kd row of the table under the graph, R square 0.9527, the concentration axis reads Cons (nM); fitted curve levels off at A450 about 2.8, last point at 100 nM about 3.1.
A further assay has as its target Fam19A1-M4. Briefly: ELISA on coated FAM19A1 protein (500 ng), one antibody amount, anti-hKappa-HRP (Example 4).
The target in assay [3] is Wild-type FAM19A1 (Table 10) (Mus musculus (Mouse), UniProt Q7TPG8 20-133). The assay is described as above.
The target in another assay is Fam19A1-M3. Described as above.
A further assay concerns the target Fam19A1-M7. The assay is described as above.
Another assay deals with Fam19A1-M5. The assay is described as above.
In assay [4] the target is T1, FAM19A1 protein (ELISA of Example 3). Briefly: ELISA, IgG titrated from 0 to 100 nM on FAM19A1 protein (Example 3); Kd row of the table under the graph, R square 0.9168, the concentration axis reads Cons (nM); the curve is faint and not told apart from that of 1A11.

T4 sequence (Q15109 23-344 limits assumed): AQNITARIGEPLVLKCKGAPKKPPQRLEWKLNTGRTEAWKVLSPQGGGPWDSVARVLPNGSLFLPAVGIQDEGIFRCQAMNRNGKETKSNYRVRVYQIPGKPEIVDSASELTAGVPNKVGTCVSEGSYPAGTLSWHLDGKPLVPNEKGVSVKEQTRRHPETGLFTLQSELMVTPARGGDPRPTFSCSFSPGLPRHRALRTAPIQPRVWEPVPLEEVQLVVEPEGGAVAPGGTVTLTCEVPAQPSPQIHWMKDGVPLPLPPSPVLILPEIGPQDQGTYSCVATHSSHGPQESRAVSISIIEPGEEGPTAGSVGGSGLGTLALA

B1: anti-FAM19A1-2G7 (antibody, V domains shown)
VH: QVQLVESGGGLVKPGRSLSLSCTTSGFPFGDHAINWVRQAPGKGLEWVGFIRSNTYGGTTQYAASVEGRFTISRDDSKSIAYLQMNSLRAEDTAVYYCTKDITGGGFWSDYGDYFDAFDFWGQGTMVTVSS
VL: SYELTQPLSVSVSPGQTASISCSGDKLGYKYASWYQQKPGQSPVVVIYQDKKRPSGIPERFSGSNSGNTATLTISGTQPMDEADYYCQAWDSGTASHVFGTGTKVTVL
notes: also called anti-FAM19A1 IgG1 antibody clone 2G7
Molecule B1 yielded a Kd in assay [1] of 1.89 nM.

B2: Anti-FAM19A1 2G7 mono scFv-phage clone (scFv, V domains shown)
VH: B1 VH
VL: B1 VL
For the molecule B2, the binding result with CD58-Fc, in the assay with AITR-Fc and with hRAGE-Fc was “no binding” in each case.

B3: anti-FAM19A1-1A11 (antibody, V domains shown)
VH: QVQLVESGAEVRKPGASVKVSCKASGYSFTGYDINWVRQAPGQGLEWMGWMNPSSGNTGYAQKFQGRVTMTRDSSISTAYMELSSLRSEDTAVYYCARALNSVYYYHALDVWGQGTTITVSS
VL: SYELTQPPSASVSPGQTASITCSGDRLHNKYTSWYQQKPGQSPLLVIYQDAKRPSGIPERFSGSSSRGTATLTISGTQATDEADYYCQTWDRSTGVFGTGTKVTVL
notes: also called anti-FAM19A1 IgG1 antibody clone 1A11; A1-1A11-Ybio
For B3, the binding result in the assay with Fam19A1-M2 and with Fam19A1-M1 was “binds” each time.

B4: Anti-FAM19A1 1A11 mono scFv-phage clone (scFv, V domains shown)
VH: B3 VH
VL: B3 VL
On to B4, for which the binding result in the assay with CD58-Fc, in the assay with AITR-Fc and in the assay with hRAGE-Fc was “no binding” in each case.

B5: anti-FAM19A1 IgG1 antibody clone 1C1 (antibody, V domains shown)
VH: QVQLVESGGGVAQPGRSLRLSCAASGFAFSDYGIHWVRQAPGKGLEWVALISYDGSKRSYADSVKGRFAISRDNSKNTLYLQMNSLRAEDTAVYYCARPGDYALAFDLWGQGTMVTVSS
VL: QTVVTQEPSFSVSPGETVTLTCGLSSGSVSTSHFPSWYRQTPGQAPRPLIDSRNARSIGVPDRFSGSIVGTKATLTISGAQAEDECNYYCALYMGRGNWVFGGGTKLTVL
notes: also called A1-1C1; FAM19A1-1C1
For B5, the binding result with FAM19A1 mutant M6 is reported as “no binding”; with Fam19A1-M4, “binds”; in assay [3] it was “binds”; in the assay with Fam19A1-M3 it was “binds”; with Fam19A1-M2, “binds”; with Fam19A1-M1 it was “binds”. For the same molecule, the binding result with Fam19A1-M7 and in the assay with Fam19A1-M5 was “binds” in each case. The molecule also had a Kd in assay [2] of 1.13 nM.

B6: Anti-FAM19A1 1C1 mono scFv-phage clone (scFv, V domains shown)
VH: B5 VH
VL: B5 VL
Regarding B6, the binding result with CD58-Fc, in the assay with AITR-Fc and in the assay with hRAGE-Fc was “no binding” in each case.

B7: anti-FAM19A1-3A8 (antibody, V domains shown)
VH: QVQLQQSGPGLVKPSETLSLICSVSGDAITSGSYYWGWIRQSPGRGLEWIGEISHSGSTDYNPSLKSRVTISVDKSRNQFSLRLNSVTAVDTAVYYCAGDTALVGAYSIWGQGTMVTVSS
VL: SYELTQAPSLSVSPGQTANIICSGDNLRTKYVSWYQQKPGQSPLLVIYQDTRRPSGIPARFSGSNSGNTATLTISGTQTRDESTYYCMTWDVDTTSMIFGGGTKLTVL
notes: also called anti-FAM19A1 IgG1 antibody clone 3A8
For B7, in assay [4], the Kd turned out to be 56 nM.

B8: Anti-FAM19A1 3A8 mono scFv-phage clone (scFv, V domains shown)
VH: B7 VH
VL: B7 VL
Take B8: the binding result in the assay with CD58-Fc, with AITR-Fc and with hRAGE-Fc was “no binding” in each case.
